FireProtDB (doi:10.1110/ps.8.7.1530)

B1: PTS system mannose-specific EIIAB component, P69797 (parent)
chain: MTIAIVIGTHGWAAEQLLKTAEMLLGEQENVGWIDFVPGENAETLIEKYNAQLAKLDTTKGVLFLVDTWGGSPFNAASRIVVDKEHYEVIAGVNIPMLVETLMARDDDPSFDELVALAVETGREGVKALKAKPVEKAAPAPAAAAPKAAPTPAKPMGPNDYMVIGLARIDDRLIHGQVATRWTKETNVSRIIVVSDEVAADTVRKTLLTQVAPPGVTAHVVDVAKMIRVYNNPKYAGERVMLLFTNPTDVERLVEGGVKITSVNVGGMAFRQGKTQVNNAVSVDEKDIEAFKKLNARGIELEVRKVSTDPKLKMMDLISKIDK

Variants of: B1
Conditions: Escherichia coli (strain K12); pH 7.4; 22 °C; GdnHCl; Fluorescence; Sodium phosphate 20 mM; reversible: yes; structure 1PDO; whole UniProt chain shown

Row | Variant | denaturant midpoint (higher = more stable) | unfolding free energy
1 | W69F | 2.1 M | 6.22 kcal/mol
2 | W33F | 2.2 M | 8.37 kcal/mol
3 | W12F W69F | 2.1 M | 11 kcal/mol
4 | W12F | 2.6 M | 14.1 kcal/mol
5 | W33F W69F | 1.8 M | 5.26 kcal/mol
6 | W12F W33F | 2.2 M | 10.8 kcal/mol
